Results on four molecules are retold here after patent US20110300138A1 (published 2011).

For test [1], the target named is TSHR (thyroid stimulating hormone receptor), full length human (human) (UniProt P16473). Briefly: negative control; competitor ^125I-K1-70 IgG, TSHR coated tubes; 0.01 µg/mL in HBD.
Test [2] has as its target TSH receptor (TSHR), full length human, coated on tubes (human) (UniProt P16473). Kind of test: inhibition of 125I-K1-18 IgG binding to TSHR coated tubes; competitor 125I-K1-18 IgG; negative control sample at 0.01 µg/mL in HBD serum.
The target in test [3] is TSH receptor (full length human TSHR) (human) (UniProt P16473). Briefly: competition ELISA: inhibition of M22 Fab-peroxidase (competitor) binding to TSHR coated wells; negative control at 0.1 µg/mL diluted in HBD serum pool. For orientation: In an ELISA, binding on a coated surface is turned into a signal by an enzyme label.
The target in test [4] is thyroid stimulating hormone receptor (TSHR), full length human TSHR (human) (UniProt P16473). Kind of test: TSH-biotin competition ELISA, TSHR coated wells; negative control, 1 µg/mL in HBD serum.
For test [5], the target named is TSH receptor (TSHR), full length human, coated on tubes (human) (UniProt P16473). Briefly: inhibition of 125I-TSH binding to TSHR coated tubes; 10 µg/mL, diluted in HBD serum pool.
The target is the same in test [6]. Kind of test: inhibition of 125I-K1-18 IgG binding to TSHR coated tubes; competitor 125I-K1-18 IgG; negative control sample at 0.01 µg/mL in assay buffer.
For test [7], the target named is TSHR (thyroid stimulating hormone receptor), full length human (human) (UniProt P16473). Kind of test: negative control; competitor ^125I-K1-70 IgG, TSHR coated tubes; 100 µg/mL in assay buffer.
In test [8] the target is TSH receptor (TSHR), full length human, coated on tubes (human) (UniProt P16473). Kind of test: inhibition of 125I-K1-18 IgG binding to TSHR coated tubes; competitor 125I-K1-18 IgG; negative control sample at 100 µg/mL in HBD serum.
Test [9] deals with human TSH receptor (full length) coated on ELISA plate wells (human) (UniProt P16473). Briefly: TSH-biotin binding inhibition ELISA, TSHR coated wells; 10 µg/mL in assay buffer + 100 µg/mL 5B3 IgG; negative control MAb.
For test [10], the target named is TSHR (thyroid stimulating hormone receptor), full length human (human) (UniProt P16473). Kind of test: negative control; competitor ^125I-K1-70 IgG, TSHR coated tubes; 0.01 µg/mL in assay buffer.
Test [11] concerns the target TSHR (full length) coated on tubes (human) (UniProt P16473). Kind of test: inhibition of 125I-K1-18 Fab (competitor) binding to TSHR coated tubes; negative control 0.01 µg/mL in HBD serum.
Test [12] shares this target. Briefly: inhibition of 125I-K1-18 Fab (competitor) binding to TSHR coated tubes; negative control 0.1 µg/mL in assay buffer.
The target in test [13] is thyroid stimulating hormone receptor (TSHR), full length human TSHR (human) (UniProt P16473). Kind of test: TSH-biotin competition ELISA, TSHR coated wells; negative control, 100 µg/mL in assay buffer.
The target of test [14] is TSH receptor (full length human TSHR) (human) (UniProt P16473). Kind of test: competition ELISA: inhibition of M22 Fab-peroxidase (competitor) binding to TSHR coated wells; negative control at 10 µg/mL diluted in HBD serum pool.
The target of test [15] is TSHR (full length) coated on tubes (human) (UniProt P16473). Kind of test: inhibition of 125I-K1-18 Fab (competitor) binding to TSHR coated tubes; test sample 100 µg/mL in assay buffer.
The target of test [16] is thyroid stimulating hormone receptor (TSHR), full length human TSHR (human) (UniProt P16473). Briefly: TSH-biotin competition ELISA, TSHR coated wells; 10 µg/mL in HBD serum.
The target of test [17] is TSHR (full length) coated on tubes (human) (UniProt P16473). Briefly: inhibition of 125I-K1-18 Fab (competitor) binding to TSHR coated tubes; test sample 0.01 µg/mL in HBD serum.
Test [18] deals with TSH receptor (full length human TSHR) (human) (UniProt P16473). Kind of test: competition ELISA: inhibition of M22 Fab-peroxidase (competitor) binding to TSHR coated wells; test sample at 1 µg/mL diluted in assay buffer.
The target in test [19] is TSHR (thyroid stimulating hormone receptor), full length human (human) (UniProt P16473). Briefly: competitor ^125I-K1-70 IgG, TSHR coated tubes; 10 µg/mL in assay buffer.
In test [20] the target is TSH receptor (full length human TSHR) coated on tubes (human) (UniProt P16473). Kind of test: 125I-TSH binding inhibition read against NIBSC 90/672; 30 ng/mL, in serum.
Test [21] addresses thyroid stimulating hormone receptor (full length human TSHR) (human) (UniProt P16473). Kind of test: ELISA, inhibition of TSH-biotin binding to TSHR coated wells; 1 µg/mL, diluted in HBD serum pool.
In test [22] the target is TSH receptor (TSHR) coated on tubes (human) (UniProt P16473). Kind of test: inhibition of 125I-K1-70 IgG binding to TSHR coated tubes; sample 1 µg/mL in assay buffer.
In test [23] the target is TSH receptor (TSHR), full length human, coated on tubes (human) (UniProt P16473). Briefly: inhibition of 125I-K1-18 IgG (competitor) binding to TSHR coated tubes; test sample at 100 µg/mL in HBD serum pool.
For test [24] the target is unchanged. Kind of test: inhibition of 125I-K1-18 IgG (competitor) binding to TSHR coated tubes; test sample at 1 µg/mL in HBD serum pool; mean of duplicate.
The target of test [25] is human thyroid stimulating hormone receptor (TSHR), full length (human) (UniProt P16473). Briefly: 125I-K1-18 Fab competition, TSHR coated tubes; 0.1 µg/mL in HBD.
For test [26], the target named is human TSH receptor (full length) coated on ELISA plate wells (human) (UniProt P16473). Kind of test: TSH-biotin binding inhibition ELISA, TSHR coated wells; 10 µg/mL in HBD serum pool.
Test [27] has the same target. Kind of test: TSH-biotin binding inhibition ELISA, TSHR coated wells; 10 µg/mL in assay buffer + 100 µg/mL 5B3 IgG.

For 5B3 IgG (antibody), the Inhibition of binding (%) in test [1] was -5.8%; in [2], -8.1%; in test [3], 3%; in test [4], -3.5%; in test [5], -1.9%; in test [6] it was -4.2%. For the same molecule, the Inhibition of binding (%) in test [7] was 1.3%; in [8], 29.4%; in [10] it was -3.6%; in test [11] it was -8.6%; in test [12], -3.6%; in test [13], 1.3%. In addition, the Inhibition of binding (%) in [14] is 4.9%. Moreover, the % inhibition of TSH-biotin binding in test [9] is -4.8%.
Consider 9D33 IgG (antibody), for which the Inhibition of binding (%) in test [15] was determined as 81.5%; in test [16], 83.2%; in test [17] it was 2.3%; in test [18], 60.1%; in [19] it was 41.7%.
As for M22 IgG (antibody), in [20], the units/L is 4.3 units/L.

B1: 5C9 IgG (antibody, from another filing, V domains shown)
VH: EVQLVESGGGLIQPGGSLRLSCAASGFTVSSNYMSWVRQAPGKGLEWVSVTYSGGSTSYADSVKGRFTISRDNSKNTLYLQMNSLRAEDTAVYYCARGGRYCSSISCYARSGCDYWGQGTLVTVSS
VL: AIQMTQSPSSLSASVGDRVTITCRASQSISNYLNWYQQKPGKAPKLLIYAASSLQSGVPSRFSGSGSGTDFTLTISSLQPEDFATYYCQQSYSSPSTTFGQGTKLEIK
As to B1, the Inhibition of binding (%) is 28.5% in test [21]; 56.4% in test [22]; 57.7% in test [23]; 26.8% in test [24]; 6.3% in test [25]. Further, the values for the % inhibition of TSH-biotin binding in test [26] and in [27] were 42.6% and 63.9%, respectively.
